How the values were obtained:
[1] = target: T1, wild-type STAT1, overexpressed (pLVX-STAT1-WT), lactylated in BMSCs on the PCL/nHA/SL scaffold (UniProt P42224 1-750, lysine lactylation, elevated 2.4-fold on the scaffold (Klac 0.797 ± 0.105); K193 named as the key lactylation site); assay: cell-based or functional assay
T1 sequence (looked up): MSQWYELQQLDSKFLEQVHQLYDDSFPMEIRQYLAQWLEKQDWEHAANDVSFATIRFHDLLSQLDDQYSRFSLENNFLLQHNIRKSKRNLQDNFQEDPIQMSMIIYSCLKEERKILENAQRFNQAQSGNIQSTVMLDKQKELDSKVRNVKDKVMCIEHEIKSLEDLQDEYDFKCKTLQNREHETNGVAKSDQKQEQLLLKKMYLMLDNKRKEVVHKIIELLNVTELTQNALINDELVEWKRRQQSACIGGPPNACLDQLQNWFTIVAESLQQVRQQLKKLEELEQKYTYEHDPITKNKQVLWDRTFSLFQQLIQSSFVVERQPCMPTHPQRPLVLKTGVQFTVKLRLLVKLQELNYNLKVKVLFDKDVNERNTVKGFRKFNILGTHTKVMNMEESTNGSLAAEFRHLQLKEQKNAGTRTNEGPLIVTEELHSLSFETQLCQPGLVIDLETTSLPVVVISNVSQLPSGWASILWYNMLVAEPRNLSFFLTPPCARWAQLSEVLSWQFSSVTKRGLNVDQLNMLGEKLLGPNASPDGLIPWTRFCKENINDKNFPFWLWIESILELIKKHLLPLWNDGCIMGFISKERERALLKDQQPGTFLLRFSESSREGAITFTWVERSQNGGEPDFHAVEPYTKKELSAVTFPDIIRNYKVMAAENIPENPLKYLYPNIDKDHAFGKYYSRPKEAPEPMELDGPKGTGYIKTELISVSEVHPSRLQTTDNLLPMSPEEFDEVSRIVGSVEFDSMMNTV

[2] = target: T2, STAT1, endogenous in BMSCs (human (endogenous in BMSCs), UniProt P42224 1-750); assay: co-IP; BMSC lysates, no osteogenic induction, 48h post-transfection; STAT1 antibody for pull-down with IgG control, Protein A/G agarose; blots probed for lactylation and Runx2; cells scaffold-free or on PCL/nHA/SL scaffold; band intensities quantified; conditions: partners not purified
T2 construct: STAT1, endogenous in human bone marrow mesenchymal stem cells (ATCC PCS-500-012); STAT1 precipitated with anti-STAT1 antibody from scaffold-free Runx2-OE cells, which carry no STAT1 construct; source: endogenous, human BMSC lysate
T2 sequence (looked up): T1 sequence (looked up)

[3] = target: T3, wild-type STAT1, overexpressed (pLVX-STAT1-WT), scaffold-free BMSCs (UniProt P42224 1-750); assay: as above; conditions: partners not purified
T3 construct: STAT1, wild type; No tag is stated for this experiment (the rescue lentivirus of another experiment is HA-tagged); The anti-STAT1 antibody precipitates the endogenous STAT1 as well; Lactylation was low in these cells (0.327 ± 0.046); also called STAT1-OE; source: human BMSCs, lentiviral transduction (pLVX-STAT1-WT), scaffold-free, in lysate
T3 sequence (looked up): T1 sequence (looked up)

[4] = target: T1, wild-type STAT1, overexpressed …; assay: as above; conditions: partners not purified

B1: Runx2, overexpressed (pLVX-Runx2) (natural protein, UniProt Q13950 1-521, looked up)
chain: MASNSLFSTVTPCQQNFFWDPSTSRRFSPPSSSLQPGKMSDVSPVVAAQQQQQQQQQQQQQQQQQQQQQQQEAAAAAAAAAAAAAAAAAVPRLRPPHDNRTMVEIIADHPAELVRTDSPNFLCSVLPSHWRCNKTLPVAFKVVALGEVPDGTVVTVMAGNDENYSAELRNASAVMKNQVARFNDLRFVGRSGRGKSFTLTITVFTNPPQVATYHRAIKVTVDGPREPRRHRQKLDDSKPSLFSDRLSDLGRIPHPSMRVGVPPQNPRPSLNSAPSPFNPQGQSQITDPRQAQSSPPWSYDQSYPSYLSQMTSPSIHSTTPLSSTRGTGLPAITDVPRRISDDDTATSDFCLWPSTLSKKSQAGASELGPFSDPRQFPSISSLTESRFSNPRMHYPATFTYTPPVTSGMSLGMSATTHYHTYLPPPYPGSSQSQSGPFQTSSTPYLYYGTSSGSYQFPMVPGGDRSPSRMLPPCTTTSNGSTLLNPNLPNQNDGVDADGSHSSSPTVLNSSGRMDESVWRPY
notes: Runx2; The anti-Runx2 blot also sees the endogenous Runx2 of the BMSCs; also called Runx2-OE; source: human BMSCs, lentiviral transduction (pLVX-Runx2), in lysate
Osteocalcin protein (Western blot) in Runx2-OE + STAT1-OE BMSCs on the PCL/nHA/SL scaffold, rescued to STAT1-KD-like levels [1]: 0.474 | relative co-IP band intensity [2]: 0.582 | relative co-IP band intensity [3]: 0.845 | relative co-IP band intensity [4]: 0.286
